Test results published in patent publication US20230140797A1 (published 2023).
Numbering of substitutions follows the chain as printed.

B1: IL6R-BP489/IL6R-L (antibody, human IgG1, kappa)
heavy: QVQLQESGPGLVKPSETLSLTCAVSGHSISHDHAWSWVRQPPGEGLEWIGFISYSGITNYNPSLQGRVTISRDNSKNTLYLQMNSLRAEDTAVYYCARSLARTTAMDYWGEGTLVTVSSASTKGPSVFPLAPSSKSTSGGTAALGCLVKDYFPEPVTVSWNSGALTSGVHTFPAVLQSSGLYSLSSVVTVPSSSLGTQTYICNVNHKPSNTKVDKKVEPKSCDKTHTCPPCPAPDLLGDDSVFLFPPKPKDTLMISRTPEVTCVVIDVAEEDGEVKFNWYVDGVEVHNAKTKPREEQDNSTYRVVSVLTVLHQDWLNGKEYKCKVSNKALPRPIEKTISKAKGQPREPQVYTLPPSRDELTKNQVSLTCLVKGFYPSDIAVEWESNGQPENNYKTTPMVLDSDGSFFLYSKLTVDKSRWQQGNVFSCSVMHEALHNHYTQESLSLSP
light: not shown
B2: IL6R-BP911/IL6R-L (antibody, human IgG1, kappa)
heavy: B1 heavy with D235E, D239G, I266V, A269S, E270H, G273P, D298Y, R332K, M398P
light: not shown
B3: IL6R-BP499/IL6R-L (antibody, human IgG1, kappa)
heavy: B1 heavy with M398L
light: not shown
B4: IL6R-BP126/IL6R-L (antibody, human IgG1, kappa)
heavy: B1 heavy with D235E, D239G, I266V, A269S, E270H, G273P, D298Y, K328L, R332A, M398P
light: not shown
B5: BP560 (antibody, human IgG1, kappa)
heavy: B1 heavy with D235E, D239G, I266V, A269G, M398P
light: not shown
B6: IL6R-BP511/IL6R-L (antibody, human IgG1, kappa)
heavy: B1 heavy with D235E, E274P, M398P
light: not shown
B7: IL6R-BP078/IL6R-L (antibody, human IgG1, kappa)
heavy: B1 heavy with D235E, D239G, I266V, A269S, E270H, G273P, D298Y, R332M, M398P
light: not shown
B8: IL6R-BP118/IL6R-L (antibody, human IgG1, kappa)
heavy: B1 heavy with D235E, D239G, I266V, A269S, E270H, G273P, D298Y, K328S, R332A, M398P
light: not shown
B9: IL6R-BP502/IL6R-L (antibody, human IgG1, kappa)
heavy: B1 heavy with A329G, M398P
light: not shown
B10: IL6R-BP568/IL6R-L (antibody, human IgG1, kappa)
heavy: B1 heavy with D239G, D298Y, R332A, M398P
light: not shown
B11: IL6R-2B002/IL6R-L (antibody, human IgG1, kappa)
heavy: B1 heavy with D239G, I266V, A269S, E270H, G273P, D298Y, R332A, M398P
light: not shown
B12: IL6R-BP551/IL6R-L (antibody, human IgG1, kappa)
heavy: B1 heavy with D235E, A269S, E274D, M398P
light: not shown
B13: IL6R-BP539/IL6R-L (antibody, human IgG1, kappa)
heavy: B1 heavy with D235E, A269G, E274P, M398P
light: not shown
B14: IL6R-BP494/IL6R-L (antibody, human IgG1, kappa)
heavy: B1 heavy with D235E, I266V, M398P
light: not shown
B15: BP562 (antibody, human IgG1, kappa)
heavy: B1 heavy with D235E, I266V, A269S, E270D, E274D, M398P
light: not shown
B16: IL6R-BP567/IL6R-L (antibody, human IgG1, kappa)
heavy: B1 heavy with D239G, R332A, M398P
light: not shown
B17: IL6R-BP106/IL6R-L (antibody, human IgG1, kappa)
heavy: B1 heavy with D235E, D239G, I266V, A269S, E270D, G273P, D298Y, R332A, M398P
light: not shown
B18: IL6R-2B172/IL6R-L (antibody, human IgG1, kappa)
heavy: B1 heavy with D235E, D239G, I266V, A269S, E270H, G273P, D298Y, V325M, R332A, M398P
light: not shown
B19: IL6R-BP142/IL6R-L (antibody, human IgG1, kappa)
heavy: B1 heavy with D235E, D239G, I266V, A269S, E270H, G273P, D298Y, K328N, R332A, M398P
light: not shown
B20: IL6R-BP102/IL6R-L (antibody, human IgG1, kappa)
heavy: B1 heavy with D235E, D239G, I266V, A269Q, E270H, G273P, D298Y, R332A, M398P
light: not shown
B21: IL6R-BP110/IL6R-L (antibody, human IgG1, kappa)
heavy: B1 heavy with D235E, D239G, I266V, A269S, E270N, G273P, D298Y, R332A, M398P
light: not shown
B22: IL6R-2B128/IL6R-L (antibody, human IgG1, kappa)
heavy: B1 heavy with D235E, D239G, I266V, A269S, E270H, G273P, R332A, M398P
light: not shown
B23: IL6R-BP503/IL6R-L (antibody, human IgG1, kappa)
heavy: B1 heavy with A329G
light: not shown
B24: IL6R-BP533/IL6R-L (antibody, human IgG1, kappa)
heavy: B1 heavy with A269G, M398L
light: not shown
B25: BP563 (antibody, human IgG1, kappa)
heavy: B1 heavy with I266V, A269S, E274D, M398P
light: not shown
B26: IL6R-BP912/IL6R-L (antibody, human IgG1, kappa)
heavy: B1 heavy with D235E, D239G, I266V, A269S, E270H, G273P, D298Y, M398P
light: not shown
B27: IL6R-BP116/IL6R-L (antibody, human IgG1, kappa)
heavy: B1 heavy with D235E, D239G, I266V, A269S, E270H, G273P, D298Y, K328T, R332A, M398P
light: not shown
B28: BP504 (antibody, human IgG1, kappa)
heavy: B1 heavy with E274P, D298Y, R332A, M398P
light: not shown
B29: IL6R-2B169/IL6R-L (antibody, human IgG1, kappa)
heavy: B1 heavy with D235E, D239G, I266V, A269S, E270H, G273P, D298Y, V325I, R332A, M398P
light: not shown
B30: IL6R-BP136/IL6R-L (antibody, human IgG1, kappa)
heavy: B1 heavy with D235E, D239G, I266V, A269S, E270H, G273P, D298Y, K328A, R332A, M398P
light: not shown
B31: IL6R-BP500/IL6R-L (antibody, human IgG1, kappa)
heavy: B1 heavy with D235E, R332A, M398P
light: not shown
B32: IL6R-BP565/IL6R-L (antibody, human IgG1, kappa)
heavy: B1 heavy with I266V, M398P
light: not shown
B33: IL6R-BP121/IL6R-L (antibody, human IgG1, kappa)
heavy: B1 heavy with D235E, D239G, I266V, A269S, E270H, G273P, D298Y, K328Q, R332A, M398P
light: not shown
B34: IL6R-BP112/IL6R-L (antibody, human IgG1, kappa)
heavy: B1 heavy with D235E, D239G, I266V, A269S, E270H, D298Y, R332A, M398P
light: not shown
B35: IL6R-BP550/IL6R-L (antibody, human IgG1, kappa)
heavy: B1 heavy with D235E, A269G, E274D, M398P
light: not shown
B36: BP509 (antibody, human IgG1, kappa)
heavy: B1 heavy with E274D, R332A, M398P
light: not shown
B37: IL6R-BP103/IL6R-L (antibody, human IgG1, kappa)
heavy: B1 heavy with D235E, D239G, I266V, A269V, E270H, G273P, D298Y, R332A, M398P
light: not shown
B38: IL6R-BP117/IL6R-L (antibody, human IgG1, kappa)
heavy: B1 heavy with D235E, D239G, I266V, A269S, E270H, G273P, D298Y, K328D, R332A, M398P
light: not shown
B39: IL6R-BP536/IL6R-L (antibody, human IgG1, kappa)
heavy: B1 heavy with A269S, A329G
light: not shown
B40: BP508 (antibody, human IgG1, kappa)
heavy: B1 heavy with E274P, R332A, M398P
light: not shown
B41: IL6R-BP100/IL6R-L (antibody, human IgG1, kappa)
heavy: B1 heavy with D235E, D239G, I266V, E270H, G273P, D298Y, R332A, M398P
light: not shown

Legend:
[1] = biological target: T1, human FcγRIIb extracellular domain with C-terminal His tag (human, UniProt P31994 43-217); experiment: ratio of SPR KDs
T1 sequence (looked up): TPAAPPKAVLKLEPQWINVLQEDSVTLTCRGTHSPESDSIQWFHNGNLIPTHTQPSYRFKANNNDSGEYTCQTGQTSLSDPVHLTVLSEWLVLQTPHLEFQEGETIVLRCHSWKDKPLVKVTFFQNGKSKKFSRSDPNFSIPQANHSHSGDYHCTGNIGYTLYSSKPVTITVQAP

[2] = biological target: T2, human FcγRIIb extracellular domain with C-terminal His tag (human, UniProt P31994 43-217); experiment: SPR Biacore, ratio of KDs
T2 sequence (looked up): T1 sequence (looked up)

[3] = biological target: T3, human FcγRIIb extracellular domain with C-terminal His tag (human, UniProt P31994 43-217); experiment: SPR
T3 sequence (looked up): T1 sequence (looked up)

[4] = biological target: T3, human FcγRIIb extracellular domain with …; experiment: SPR; remark: listed apart in the source

KD (IIaR)/KD (IIb) [1]	KD (IIb) of the parent polypeptide/KD (IIb) of the altered polypeptide [2]	KD (IIaR)/KD (IIb) [3]	KD (IIaH)/KD (IIb) [4]	Binder
42.3				B1
	3.5 fold (parent IL6R-B3/IL6R-L)			B2
38.3				B3
	2.2 fold (parent IL6R-B3/IL6R-L)			B4
		22.8	168	B5
		50.6	1240	B6
	2.8 fold (parent IL6R-B3/IL6R-L)			B7
	2.7 fold (parent IL6R-B3/IL6R-L)			B8
		28.5	352	B9
		46.1	748	B10
	3.3 fold (parent IL6R-B3/IL6R-L)			B11
		38.1	436	B12
		38	667	B13
38.6				B14
		20	466	B15
		64.4	1230	B16
	3.3 fold (parent IL6R-B3/IL6R-L)			B17
	4 fold (parent IL6R-B3/IL6R-L)			B18
	2.6 fold (parent IL6R-B3/IL6R-L)			B19
	3.4 fold (parent IL6R-B3/IL6R-L)			B20
	2.1 fold (parent IL6R-B3/IL6R-L)			B21

KD (IIaR)/KD (IIb) [1]	KD (IIb) of the parent polypeptide/KD (IIb) of the altered polypeptide [2]	KD (IIaR)/KD (IIb) [3]	KD (IIaH)/KD (IIb) [4]	Binder
	2.1 fold (parent IL6R-B3/IL6R-L)			B22
		33.2	503	B23
		28.3	684	B24
		29.1	525	B25
	2.1 fold (parent IL6R-B3/IL6R-L)			B26
	2.8 fold (parent IL6R-B3/IL6R-L)			B27
		18.5	658	B28
	2.6 fold (parent IL6R-B3/IL6R-L)			B29
	3.9 fold (parent IL6R-B3/IL6R-L)			B30
		28.9	1030	B31
		41.5	856	B32
	2.8 fold (parent IL6R-B3/IL6R-L)			B33
	9.7 fold (parent IL6R-B3/IL6R-L)			B34
		44.2	655	B35
		29.2	444	B36
	2.5 fold (parent IL6R-B3/IL6R-L)			B37
	3.9 fold (parent IL6R-B3/IL6R-L)			B38
		26.6	438	B39
		26	962	B40
	2.9 fold (parent IL6R-B3/IL6R-L)			B41
